Experimental data taken from publication PMC12521282.

Tests used:
Conditions in all cases: glycan lost; control: wild type
[1] = DSLNT formation, TLC and HPLC
[2] = NanoDSF, midpoint melting temperature
[3] = NanoDSF, onset of melting, Tris buffer
[4] = secreted protein yield, P. pastoris X-33
[5] = CD spectroscopy, secondary structure content
[6] = NanoDSF, onset and Tm, Tris and HEPES

B1: ST6GalNAc5 (Δ71ST6GalNAc5): N137Q/N161Q (protein)
parent chain: MKTLMRHGLAVCLALTTMCTSLLLVYSSLGGQKERPPQQQQQQQQQQQQASATGSSQPAAESSTQQRPGVPAGPRPLDGYLGVADHKPLKMHCRDCALVTSSGHLLHSRQGSQIDQTECVIRMNDAPTRGYGRDVGNRTSLRVIAHSSIQRILRNRHDLLNVSQGTVFIFWGPSSYMRRDGKGQVYNNLHLLSQVLPRLKAFMITRHKMLQFDELFKQETGKDRKISNTWLSTGWFTMTIALELCDRINVYGMVPPDFCRDPNHPSVPYHYYEPFGPDECTMYLSHERGRKGSHHRFITEKRVFKNWARTFNIHFFQPDWKPESLAINHPENKPVF
[1]
  enzymatic_activity, other: DSLNT produced: decreases, 0.189 ± 0.005 (4.5 µM enzyme) vs 0.202 ± 0.036 (1.0 µM enzyme)
[2]
  stability_or_folding, Tm: no change
[3]
  stability_or_folding, other: onset-of-melting temperature: decreases
[4]
  expression_or_secretion, fold_change: decreases
[5]
  structure_or_conformation: changes

B2: ST6GalNAc6 (Δ70ST6GalNAc6): N98Q/N149Q (protein)
parent chain: MACSRPPSQCEPTSLPPGPPAGRRHLPLSRRRREMSSNKEQRSAVFVILFALITILILYSSNSANEVFHYGSLRGRSRRPVNLKKWSITDGYVPILGNKTLPSRCHQCVIVSSSSHLLGTKLGPEIERAECTIRMNDAPTTGYSADVGNKTTYRVVAHSSVFRVLRRPQEFVNRTPETVFIFWGPPSKMQKPQGSLVRVIQRAGLVFPNMEAYAVSPGRMRQFDDLFRGETGKDREKSHSWLSTGWFTMVIAVELCDHVHVYGMVPPNYCSQRPRLQRMPYHYYEPKGPDECVTYIQNEHSRKGNHHRFITEKRVFSSWAQLYGITFSHPSWT
[1]
  enzymatic_activity: abolishes
[6]
  stability_or_folding, Tm: decreases, reduced by 7.3 (Tris), 10 (HEPES) vs 56.8
[4]
  expression_or_secretion, fold_change: decreases
[5]
  structure_or_conformation: changes
